Experiments:
[1] = biological target: T1, Clostridium difficile toxin B (TcdB) (Clostridium difficile, UniProt P18177 2-2366); experiment: cell-based or functional assay
[2] = biological target: T1, Clostridium difficile toxin B (TcdB); experiment: cell-based or functional assay; remark: listed apart in the source
[3] = biological target: T1, Clostridium difficile toxin B (TcdB); experiment: ELISA, VHH dilution series on plate-coated rTcdB, anti-E-tag-HRP detection

T1 sequence (P18177 2-2366): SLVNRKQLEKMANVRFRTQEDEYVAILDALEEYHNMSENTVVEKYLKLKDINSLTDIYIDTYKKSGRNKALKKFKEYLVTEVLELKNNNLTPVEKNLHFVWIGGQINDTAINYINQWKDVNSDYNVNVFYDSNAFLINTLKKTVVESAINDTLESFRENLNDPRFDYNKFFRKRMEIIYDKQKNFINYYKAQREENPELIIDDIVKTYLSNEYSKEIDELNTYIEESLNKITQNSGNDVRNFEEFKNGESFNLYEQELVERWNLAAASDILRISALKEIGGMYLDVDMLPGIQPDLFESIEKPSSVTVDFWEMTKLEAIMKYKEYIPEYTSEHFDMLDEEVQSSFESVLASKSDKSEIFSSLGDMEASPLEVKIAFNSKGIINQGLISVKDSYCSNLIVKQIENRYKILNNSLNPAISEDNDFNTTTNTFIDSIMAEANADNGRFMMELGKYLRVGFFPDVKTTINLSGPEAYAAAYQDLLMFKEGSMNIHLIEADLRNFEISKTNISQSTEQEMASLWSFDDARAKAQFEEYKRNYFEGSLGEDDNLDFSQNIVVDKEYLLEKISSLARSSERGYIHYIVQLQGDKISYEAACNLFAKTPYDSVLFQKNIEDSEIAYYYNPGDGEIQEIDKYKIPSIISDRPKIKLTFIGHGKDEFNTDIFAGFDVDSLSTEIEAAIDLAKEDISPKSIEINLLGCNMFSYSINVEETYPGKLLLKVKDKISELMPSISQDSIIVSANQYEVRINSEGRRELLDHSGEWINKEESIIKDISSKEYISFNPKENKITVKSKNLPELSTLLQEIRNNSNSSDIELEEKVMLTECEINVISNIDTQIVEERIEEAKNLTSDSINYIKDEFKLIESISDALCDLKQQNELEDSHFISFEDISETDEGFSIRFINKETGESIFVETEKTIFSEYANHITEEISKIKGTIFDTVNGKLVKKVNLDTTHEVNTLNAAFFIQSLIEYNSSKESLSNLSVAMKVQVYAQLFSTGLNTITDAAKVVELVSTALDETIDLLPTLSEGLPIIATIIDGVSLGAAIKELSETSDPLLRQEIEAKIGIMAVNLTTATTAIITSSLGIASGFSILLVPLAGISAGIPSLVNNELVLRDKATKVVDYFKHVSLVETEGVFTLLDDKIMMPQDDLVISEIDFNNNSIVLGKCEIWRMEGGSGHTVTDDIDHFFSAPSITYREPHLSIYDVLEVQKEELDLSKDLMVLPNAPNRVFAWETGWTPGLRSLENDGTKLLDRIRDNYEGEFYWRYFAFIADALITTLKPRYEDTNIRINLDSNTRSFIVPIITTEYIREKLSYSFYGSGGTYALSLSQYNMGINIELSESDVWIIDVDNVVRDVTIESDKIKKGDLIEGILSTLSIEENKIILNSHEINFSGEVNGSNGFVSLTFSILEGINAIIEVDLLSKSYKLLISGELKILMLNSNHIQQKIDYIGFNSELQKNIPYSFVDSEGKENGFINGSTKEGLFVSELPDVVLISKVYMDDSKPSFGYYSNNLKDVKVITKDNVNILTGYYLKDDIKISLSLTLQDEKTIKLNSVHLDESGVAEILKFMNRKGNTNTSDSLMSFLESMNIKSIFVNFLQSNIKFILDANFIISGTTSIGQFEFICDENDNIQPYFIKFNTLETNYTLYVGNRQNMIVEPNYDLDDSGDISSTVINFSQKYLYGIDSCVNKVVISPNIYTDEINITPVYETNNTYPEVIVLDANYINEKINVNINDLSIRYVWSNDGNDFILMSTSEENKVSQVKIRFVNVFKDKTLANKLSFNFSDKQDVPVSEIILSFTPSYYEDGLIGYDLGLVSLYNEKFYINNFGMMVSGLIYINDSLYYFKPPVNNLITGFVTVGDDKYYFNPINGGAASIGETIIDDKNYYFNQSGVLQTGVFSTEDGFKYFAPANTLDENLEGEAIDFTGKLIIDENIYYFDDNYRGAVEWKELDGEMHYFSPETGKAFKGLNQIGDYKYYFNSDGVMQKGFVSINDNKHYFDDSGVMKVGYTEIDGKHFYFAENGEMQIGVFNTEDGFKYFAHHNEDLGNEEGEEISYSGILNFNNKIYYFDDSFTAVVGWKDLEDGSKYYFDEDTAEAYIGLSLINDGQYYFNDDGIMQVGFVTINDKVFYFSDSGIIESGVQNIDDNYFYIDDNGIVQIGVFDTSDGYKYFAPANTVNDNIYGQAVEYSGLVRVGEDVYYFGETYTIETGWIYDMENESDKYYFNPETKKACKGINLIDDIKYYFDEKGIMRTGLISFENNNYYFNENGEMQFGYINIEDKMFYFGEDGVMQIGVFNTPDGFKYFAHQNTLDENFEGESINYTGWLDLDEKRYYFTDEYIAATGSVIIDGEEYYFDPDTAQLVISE

B1: JZS-E4 (XAF-10) anti-TcdB VHH (VHH)
VHH: QVQLVESGGGLAQAGGSLRLSCAASGSSFSMNVMGWYRQPPGKQRELVATIRSDGITNYAESVKGRFTISRDNVKNTVHLEMNRLKAEDTAVYYCFHGRARTGNNADLGSWGQGTQVTVSS
notes: also called JZX-E4
Apparent potency, (IC50); TcdB neutralization, Vero cell rounding assay [1]: 1 nM
IC50 TcdB-neutralization potency (FIG. 1), Vero cell rounding assay [2]: ~0.5 nM
EC50 [3]: 2 nM

B2: JZS-C2 (XAF-6) anti-TcdB VHH (VHH)
VHH: QVQLAESGGGLVQPGGSLRLSCAASGFTSNSYYIGWFRQAPGKGREAVSSISSSGGSPNYANAVKGRFTITRDNANNTVYLQMDNLKPEDTAVYYCAASKFPLTTMASNRYHYWGQGTQVTVSS
Apparent potency, (IC50); TcdB neutralization, Vero cell rounding assay [1]: 0.5 nM
EC50 [3]: 3 nM

B3: JZT-G9 (XAG-7) anti-TcdB VHH (VHH)
VHH: QVQLAETGGGLVQAGGSLRLSCVSSERNPGINAMGWYRQAPGSQRELVAVWQTGGSLSYADSVKGRFTISRDNLKNTVYLQMNSLKPEDAAVYYCYLKKWRDQYWGQGTRVTVSS
Apparent potency, (IC50); TcdB neutralization, Vero cell rounding assay [1]: 3 nM
EC50 [3]: 0.1 nM

B4: JZS-B9 (XAF-5) anti-TcdB VHH (VHH)
VHH: QLQLVESGGGLVQPGGSLRLSCTSARFSLINYAIGWFRQAPGQKREGVSLLTSGGATYYADSARDRFTISRDNARNTVYLQMNSLKPEDTAVYSCAAGPYSRTLVSRWKVGDGMEYWGKGTLVTVSS
Apparent potency, (IC50); TcdB neutralization, Vero cell rounding assay [1]: 1 nM
EC50 [3]: 0.2 nM

B5: JZS-B2 (XAF-4) anti-TcdB VHH (VHH)
VHH: QVQLAESGGGLVQAGGSLRLSCVGSGTSFPRNYMGWYRQAPGKQRELVAAISHDGNVEYADSVKGRFTISRGNFVNTVALQMNSLKSEDTAVYYCKLVTLRRDEYWGQGTQVTVSS
Apparent potency, (IC50); TcdB neutralization, Vero cell rounding assay [1]: > 125 nM
EC50 [3]: 0.3 nM

B6: JZS-F6 (XAF-12) anti-TcdB VHH (VHH)
VHH: QLQLAESGGGLVQPGGSLRLSCAASGITFSNVAMSWVRQAPGKGLEWVSTISTGGSSTSYLDSVKSRFTISRDNAKKTVYLQMNSLKPEDTAVYYCVKGPKYSATIRRPEGQGTQVTVSS
Apparent potency, (IC50); TcdB neutralization, Vero cell rounding assay [1]: 0.5 nM
EC50 [3]: 0.1 nM

B7: JZS-E6 (XAF-11) anti-TcdB VHH (VHH)
VHH: QVQLAETGGGLVQAGGSLRLSCAASGRLSERIFMISTMAWYRQVPGKQRELVAEISRLGRANYSDSVTDRFIISRDNTKNTVDLQMNSLKPEDTAVYYCNLKPFVDNYRGPGTQVTVSS
Apparent potency, (IC50); TcdB neutralization, Vero cell rounding assay [1]: 1 nM
EC50 [3]: 0.8 nM

B8: JZS-C10 (XAF-9) anti-TcdB VHH (VHH)
VHH: QLQLVETGGLVQAGGSLRLSCVGSGRGPGINVMGWYRQAPGTERELVATWQTGGTTNYADSVKGRFTISRDNLKNTVSLQMDSLKPEDTAVYYCYLKKWRDEYWGQGTQVTVSS
Apparent potency, (IC50); TcdB neutralization, Vero cell rounding assay [1]: 0.5 nM
EC50 [3]: 0.1 nM

B9: JZS-H9 (XAF-14) anti-TcdB VHH (VHH)
VHH: QVQLVESGGGLVQPGGSLTINCTVSGTAFSLDTMTWYRQAPGKQRELAADISSSGASNYLASVKGRFTISRDNAKSALYLQMNSLKPEDTGTYYCYRGRVRGVWPLDSGMMYWGKGTLVTVSS
notes: also called JZX-H9
Apparent potency, (IC50); TcdB neutralization, Vero cell rounding assay [1]: 15 nM
EC50 [3]: 1 nM

B10: JZT-F7 (XAG-1) anti-TcdB VHH (VHH)
VHH: QVQLVETGGGLVQAGGSLRLSCAASGSILSSMGWYRQAPGNQREFVASISRTGATDYADSVAGRFIISRDRGKNTVLALQMDSLKPEDTAVYYCNAGLGMGDPRRPGPWWGQGTQVTVSS
Apparent potency, (IC50); TcdB neutralization, Vero cell rounding assay [1]: 1 nM
EC50 [3]: 3 nM

B11: JZS-A2a (XAF-1) anti-TcdB VHH (VHH)
VHH: QVQLAESGGGLVQAGGSLRLSCAASGSVYTFMGWYRQAPGKTRELVAGISGGTITKYADSVKGRFIISRDSPKNTIYLQMNELKVEDTGVYYCNAGDTIAQAMGTRRFPFDRWGQGTQVTVAS
Apparent potency, (IC50); TcdB neutralization, Vero cell rounding assay [1]: > 25 nM
EC50 [3]: > 25 nM

B12: JZS-H4 (XAF-13) anti-TcdB VHH (VHH)
VHH: QLQLVESGGGLVQPGGSLRLSCVASGFNFSVQIMSWVRQAPGKGLEWVSAISTGGASKSYADFAKGRFTISRDNAKNTLYLQMNSLQLEDTAVYFCSKGPRTWINSSPRGQGTQVTVSS
Apparent potency, (IC50); TcdB neutralization, Vero cell rounding assay [1]: 0.5 nM
EC50 [3]: 0.2 nM

From US12077576 (TRUSTEES OF TUFTS COLLEGE, dated 2024)
